Measured values taken from the supplement of paper PMC12636428.

Tested on: Saccharomyces cerevisiae
Test: transcriptional activation domain activity (GFP:mCherry ratio, weighted mean of sorted bins, harmonized to initial dataset scale) (arbitrary fluorescence ratio units); higher = stronger transcriptional activation
Details: beta-estradiol 1 µM; induction time 4 h
Experimental: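 53-aa protein tiles (fungal proteins plus yeast TF control tiles) fused C-terminally to a DBD-estrogen-binding domain-mCherry synthetic TF, integrated in S. cerevisiae (URA3 locus) with a GFP reporter. Cells were induced with 1 uM beta-estradiol for 4 h at 30 C, FACS-sorted into 8 bins by GFP:mCherry ratio and barcodes sequenced. Activity is the read-weighted mean bin fluorescence (GFP:mCherry), averaged over barcodes (median 12); tiles under 50 reads were discarded. New active-learning values were harmonized by linear fit onto the scale of the initial (Hummel et al.) dataset. The assay saturates at low and high signal.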

Sequence	transcriptional activation domain activity
ARTSDYSIAQWRFLTKLLLVHGRWNYNRICKYIVGTFWKEIVFYLTQALYQRY	45400
ARVIRCNRSAELHVVNRLREVCEDQELRADSTALTSLVRTCRSDLRACINALQ	59300
ARVLGKKNTLEGLASTIRGTVRFVRETCYAVIYCMTRLDMQFYGFLELPGPLA	39600
ARVLRWCLTMICLTVSALLGRVILFSSAALTLVEILHDDFGFSRNLVLKNLCN	90400
ARVQVNFWFFLFVYYGFYNLTALIWITKVFNLYSLNWWPSMLGFPLTISLIAI	75700
ARVQVNFWFFLFVYYGFYNLTALMWITKVFNLYSLNWWPSTMGFPLTITLIAI	55300
ARWSVAKVFYILGRYYGLFYMIVQLYISLTLDLALNVQRLLLVLDLVWRCCLY	54000
ARYIVKYKNGLIGKHFKILQHLGIFHLHNDLCGDNLFNLWKAAGGLGALLWFP	57600
ARYVVQYKNSLIGKHFKMLQQLGIFHLHDLCSPLLFDLWKATGELGALLWFPE	66700
ASAAASGASTPATAAPPGGLFGKTPATAAPAAATPAATKSLFPAAATTTAPAA	45700
ASASASALPSSGFGATRGMKVRASVKKICEGCSSVKRRGRVFIICSKNQKHKQ	36400
ASASASASRHKKDKDRKKKHKEKDGKSSKHKKHKSSSRRSRSRSRDKDRHGDR	33300
ASASPARAPAAEVPPPVEIHVGDRCEVDRATGVARGTVRFVGEAEMPPPRPGA	42400
ASASREKGKGKGREEEKKEGESKGKEKGRKEEEKGGEEKGGEEEDDEDEDEDE	30900
ASDKQETSSQPEGGKEKEAAKEEKKPEPKKEEPKQESKPAPAPKQEKKPEPKK	32600
ASDSAPEPVKKKRGRPPKAQSDSEVVEKRPKKKPGPKPKPKAKAARKRKAPVS	18900
ASDYAIGQFRYLKRLILVHGEWSYARNANMIVNFFYKNILGIGVLWWFQIYCG	39100
ASEAAVKEESASPAAKKSKKDKKPAKGSSDSVEAPVAEATPKTKKTAKANGAV	28000
ASEAPKEEPKTESAPEPKQESAPESKKEAPAPAASKPEPPKQVEKKKESSSAP	34300
ASEKKEASQRPPPAVEKKTVPKPSSKPENRPGPSKPVVPKADSKKEAPKPAPS	9920

Sequence	transcriptional activation domain activity
ASENSESSDSSDDEADVPSRKGNAASAVNTMADDDDDEEGGGGATTAAAARTK	16900
ASEPVKEETKPPVEEHASEPVEEETKPVEEEIKPVEEHASEPVKEETKPAEEH	< 6570
ASFLVLRDIRLLDCFSVLASCGYVSLFPLIYTCDEWLIKVVYTLLWYIIYYFS	84300
ASGAAAPSGTPSLFGAKPAGTTAAPATSTPAGGLFGAASSAAPAASATTPTTG	47400
ASGAGAVKKAPKSPKAVATAKVGAKAAKPKAGAKATKPKAAKPKAAKAAAAGA	20900
ASGAKTVVKKEPASATPEPAPKQAEVKKPAAAEAAPVPAAKAAPALASAAAAA	43400
ASGSGSGSKSGGGGARQGGGGAAGAAGGKGGGAAGGSKGGGGAWGKMKAAASD	18700
ASIISQRSGIVRALSRLMIFDRKLRVKDTHLRRLQHRIVIQSLVFGAFFSCVG	54700
ASIPDPAADDDDAEFGGTGEKKPRKRAPKAASGESKNGKAKAVKTEGGASAAG	33300
ASIPEPTANLFLDSINTFGSIDIFDSDLDLNNTLQWADLFDLNFDNIMMTPQF	123000
ASKEGEREKEGGREKEGNEGKKEGDKEEGEKKEGTDKEEEEKGGEKGKGSGEE	47900
ASKRKRTEGESKKKEAKRERPKKKSRRDDDDDASGGDELEGKRSRKPKRASAS	18500
ASLEGGGGVVDISGETSSYVWRVLVYLAFINPFFCFLCALYAILILLAVLVTY	29300
ASLHCLRSSPSSSSPCAARERSSSRARTSSSMCPIAPTHKPRSSTGSPARGTP	19900
ASNAPGTGASRSAAAAATAAISRAKGAAQQQQAQKKPDASSSRPAGKQPAVKE	26900
ASNTTEVQLFINGSYVLLDTVCTRVLLYPDQILSNFRREDIALLCLQFWLFFI	28700
ASPDADGNGEVKKKYDPKDPMRPRRKKARRACYACQRAHLTCGDERPCQRCIK	43400
ASQFPWAQIEITWRCLTYLCFDSFLELPQYWMLRQKFLVEHALLAYAARYCLV	54100
ASSAPAAASSAPDAASSAPAAASSAPAAASSAPPAAASPAASPAAGGFQLQNG	38200
ASSASTGKGEEEEEDGEEKVRGKGKGQGQGQSQGQGQGQGQEAQERRDDEASA	31700
